Consider 4 molecules from US9927440B2, “Protein engineering” (priority 2009, dated 2018).

As usually defined, the Kd is the constant that tells how readily two partners part at equilibrium. A lower Kd goes with higher affinity.

A short description of series [1]: Intrinsic reaction rate of IAM-biotin with unprotected cysteine (GSH), iodide absorbance at 226 nm. The note with it: pH 7.6; for pseudo-first order rate constant (kint): 80 μM IAM-biotin, 800 μM GSH. The class given is physicochemical. Here is the method:
FIGS. 10A-C show the determination of kint in model compounds and unfolded SN.
The iodoacetyl moiety of IAM-biotin (EZ-Link™ Iodoacetyl-PEG2-Biotin; Pierce; 21334) reacts primarily with free thiolate to form a stable thioether bond. Because thiolate was the predominant reactive species, the reaction rate was dependent on the pKa of cysteine (˜8.6) relative to solution pH (which was set to 7.6). The kint values reported here were only valid for pH 7.6. kint was determined for an unprotected cysteine by reacting IAM-biotin with L-glutathione (GSH) (Sigma; G4251) and monitoring the absorbance of the liberated iodide ion (ϵ226=12,600M^−1 cm^−1 at 226 nm) as function of time. Second-order rate constants for the reaction of IAM-biotin with GSH were measured under pseudo first-order conditions at 25° C., 35° C., 45° C. and 55° C. (80 μM IAM-biotin, 800 μM GSH, 25 mM MOPS, 100 mM KCl and pH 7.6) and analyzed in terms of the Arrhenius equation (see FIG. 10).

Series [2] deals with T1, E. coli ribose-binding protein (ecRBP) (Escherichia coli, UniProt P02925, A213C/T28W).
T1 construct: made in house; host or cells: cell-free TnT, E. coli BL21 Star (DE3) extract
T1 sequence (P02925 other isoform, or with tags, fused parts or gaps T28W/A213C): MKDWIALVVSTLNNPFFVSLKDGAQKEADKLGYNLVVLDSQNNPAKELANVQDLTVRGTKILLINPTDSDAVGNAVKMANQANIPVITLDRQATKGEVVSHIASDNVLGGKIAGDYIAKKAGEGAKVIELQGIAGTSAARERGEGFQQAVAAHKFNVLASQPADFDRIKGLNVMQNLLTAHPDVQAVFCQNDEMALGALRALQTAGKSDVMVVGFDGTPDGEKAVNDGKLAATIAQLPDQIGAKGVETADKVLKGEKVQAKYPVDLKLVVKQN
The experiment in a line: biochemical. The note with it: for ΔG / ΔΔG / kex: ecRBP.A188C, 54.6 °C; for kex: 1.00E−03 M IAM. Here is the method: (§1) The rate of labeling of internal cysteine residues was measured by reacting 30-50 μL of ˜0.1 μM protein sample (i.e., ˜3-5 picomoles of protein) with excess IAM-biotin (1 mM unless otherwise stated) at constant temperature (25 mM MOPS, 100 mM KCl and pH 7.6). 5 μL aliquots were removed at fixed time intervals and quenched by addition of 2 μL 2M β-mercaptoethanol (Sigma; M6250). Following addition of 5 μL LDS-buffer (Invitrogen; NP0007) and heating for 2 min at 85° C., (un)labeled protein species were resolved by SDS-PAGE (Novex 4-12% Bis-Tris Gels; Invitrogen; NP0321). […] For the experiment shown in FIG. 8A, ecRBP variant L62C was modified with 1 mM IAM-biotin at 47.1° C., pH 7.6. […] Streptavidin was used to alter the electrophoretic mobility of the labeled protein (Streptavidin bands indicated by a, b, and c). […] Error bars represent the estimated uncertainty of the integrated band intensities (˜2%). For the experiment shown in FIG. 8B, SN variant L36C was labeled with IAM-biotin at 35.3° C., pH 7.6. […] At 29.3° C., 26.3° C. and 23.3° C., kint and klabel were manipulated by increasing the concentration of IAM-biotin from 1 mM to 3.16 mM.
(§2) The modulation of protein stability by binding of metals, ligands, activators, inhibitors, substrates, nucleic acid or other proteins can be used to measure binding affinities within a GUWO. For a protein with a single binding site, the free energy of ligand binding was described by
(§3) [formula] where P was the binding polynomial, [L] the total ligand concentration, and KD the apparent dissociation constant of the ligand. For proteins with multiple ligand-binding sites, P was expanded as described in Equations 21-36 below.
(§4) By thermodynamic linkage, any change in ΔGU caused predominantly by ligand binding (Scheme 1) is ΔGbind=ΔΔ^LGU=Δ^LGU−Δ^apoGU [20] where Δ^LGU and Δ^apoGU were the stability of the protein in the presence of absence of ligand respectively. Equation 20 was used to obtain apparent KD values from either the ligand dependence of ΔΔGU (by curve fitting), or from a single measurement of ΔΔGU.

Series [3] has as its target T2, E. coli ribose-binding protein (ecRBP) (Escherichia coli, UniProt P02925, L86C/T28W).
T2 construct: made in house; host or cells: cell-free TnT, E. coli BL21 Star (DE3) extract
The series is described as follows: biochemical. The note with it: for ΔG / ΔΔG / kex: ecRBP.L62C, 48.9 °C; for kex: 1.00E−03 M IAM. The procedure:
as §1, §2, §3, §4

Series [4] can be described thus: Quantitative cysteine reactivity (QCR): protein stability, temperature dependence of ΔGU. The class given is physicochemical. The note with it: for ΔHm: Gibbs-Helmholtz fit, ΔCp assigned a priori; for ΔG°U at 25° C.: ecRBP mutants, Gibbs-Helmholtz extrapolation; for apparent Tm below wild-type: versus literature wild-type Tm. The procedure:
as §1
Following staining with GelCode™ Blue Stain reagent (Thermo Scientific; 24592), gel images were digitized and band intensities quantified by densitometry (ImageJ; Rasband (1997-2009), U.S. National Institutes of Health, Bethesda, Md.) and fit to a single exponential to derive klabel. When designing QCR experiments, consideration was given to the degradation of the iodoacetyl moiety of IAM-biotin, which was dependent on time, exposure to light, and temperature. […] At higher temperatures the degradation of IAM-biotin is taken into account, primarily by limiting the labeling reaction to less than ˜90 min.
[formula] applies only if the labeling conditions were fully in the EX2 limit, when kclose>>kint. As labeling reagent concentration increases, kint increases concomitantly and eventually kint will become equal to or greater than kclose. Under these conditions, the observed labeling rate was determined solely by kopen and klabel and was no longer a measure of stability. The reagent concentration and environmental conditions (i.e. pH and temperature) at which EX2 conditions no longer apply varies according to the (un)folding kinetics of the protein. A simple test of reaction mechanism was to change reagent concentration and remeasure the kinetics: EX2 conditions were satisfied if the change in the observed labeling rate was proportional to the change in reagent concentration (see FIG. 9).
The QCR experiment was designed to determine the Gibbs free energy of global protein unfolding by measuring the reactivity of wild-type or mutant cysteines buried in a hydrophobic core. […] These mutant proteins were produced in 200 μL batches by cell-free coupled transcription and translation in E. coli extract. […] This approach uses approximately 0.5 picomoles (˜10 nanograms) of protein per time point and can use a variety of thiol-reactive reagents that alter electrophoretic mobility or were highly fluorescent.
The QCR method exploits the conformational fluctuations of a protein to measure conformational free energy. Cysteines that were protected in the folded ensemble can be modified by thiol-reactive probe only by complete exposure to bulk solvent by transient unfolding reactions, as described by a two-step reaction scheme:
Unfolding free energies (ΔGU) can be determined under EX2 conditions (kclose>>kint) by measuring klabel, the rate constant for labeling a protected cysteine at a specified concentration of thiol probe [P]

Setting [5] is: second-order rate constants 25-55 °C.

T2 sequence (P02925 other isoform, or with tags, fused parts or gaps T28W/L86C): as the sequence (P02925 other isoform, or with tags, fused parts or gaps T28W/A213C) above, with L62C, C189A counted along it

Take `O=C(CI)NCCOCCOCCNC(=O)CCCC[C@@H]1SC[C@@H]2NC(=O)N[C@@H]21` [IAM-biotin, EZ-Link™ Iodoacetyl-PEG2-Biotin]: the “pseudo-first order rate constant (kint)” value in series [1] (25 °C, 25 mM MOPS, 100 mM KCl) is 0.00062 s⁻¹; in series [1] (35 °C) it was 0.00016 s⁻¹; in series [1] (45 °C) it was 0.0035 s⁻¹; in series [1] (55 °C), 0.0077 s⁻¹. Further, the “second order rate constant (k=kint/[GSH])” value is 0.78 M⁻¹ s⁻¹ in series [1] (25 °C), 2.0 M⁻¹ s⁻¹ in series [1] (35 °C), 4.4 M⁻¹ s⁻¹ in series [1] (45 °C) and 9.6 M⁻¹ s⁻¹ in series [1] (55 °C). Also, the “Arrhenius pre-exponential factor (ln A), IAM-biotin + GSH” value in series [1] (setting [5]) was 27.1±0.5. Further, in series [1] (setting [5]), the “Arrhenius slope (−Ea/R), IAM-biotin + GSH” value is on record as −8.2×10^3±0.1×10^3.
For `O=C[C@H](O)[C@H](O)[C@H](O)CO` [ribose, reference compound], the equilibrium dissociation constant (Kd) in series [2] was 1800 ± 100 nM; in series [3], 2800 ± 200 nM.

B1: ecRBP.A188C (protein, UniProt P02925 26-296, looked up, variant A188C)
Ribose import binding protein …: KDTIALVVSTLNNPFFVSLKDGAQKEADKLGYNLVVLDSQNNPAKELANVQDLTVRGTKILLINPTDSDAVGNAVKMANQANIPVITLDRQATKGEVVSHIASDNVLGGKIAGDYIAKKAGEGAKVIELQGIAGTSAARERGEGFQQAVAAHKFNVLASQPADFDRIKGLNVMQNLLTAHPDVQAVFCQNDEMALGALRALQTAGKSDVMVVGFDGTPDGEKAVNDGKLAATIAQLPDQIGAKGVETADKVLKGEKVQAKYPVDLKLVVKQ
As to B1, the ΔG in series [2] ([Ligand] 0 μM) amounted to 0.8 kcal/mol; in series [2] ([Ligand] 1.5 μM (ribose)), 1.1 kcal/mol; in series [2] ([Ligand] 3 μM (ribose)), 1.4 kcal/mol; in series [2] ([Ligand] 6 μM (ribose)), 1.6 kcal/mol; in series [2] ([Ligand] 12 μM (ribose)), 2.2 kcal/mol; in series [2] ([Ligand] 24 μM (ribose)), 2.5 kcal/mol. Besides, the ΔΔG in series [2] ([Ligand] 0 μM) turned out to be 0 kcal/mol; in series [2] ([Ligand] 1.5 μM (ribose)), 0.3 kcal/mol; in series [2] ([Ligand] 3 μM (ribose)) it was 0.6 kcal/mol; in series [2] ([Ligand] 6 μM (ribose)), 0.8 kcal/mol; in series [2] ([Ligand] 12 μM (ribose)), 1.4 kcal/mol; in series [2] ([Ligand] 24 μM (ribose)), 1.7 kcal/mol. Besides, the kex in series [2] ([Ligand] 0 μM) turned out to be 0.00217 s⁻¹; in series [2] ([Ligand] 1.5 μM (ribose)), 0.00141 s⁻¹; in series [2] ([Ligand] 3 μM (ribose)), 0.00097 s⁻¹; in series [2] ([Ligand] 6 μM (ribose)), 0.00073 s⁻¹; in series [2] ([Ligand] 12 μM (ribose)), 0.00032 s⁻¹; in series [2] ([Ligand] 24 μM (ribose)), 0.00019 s⁻¹. In series [4], this molecule yielded a ΔHm of 91 ± 4 kcal/mol. Besides, the “ΔG°U at 25° C.” value in series [4] was 4.1 ± 0.1 kcal/mol. In addition, in series [4], the “apparent Tm below wild-type” value is about 8 °C.

B2: ecRBP.L62C: E. coli ribose-binding protein variant L62C (SEQ ID NO:12) (protein, listed as Escherichia coli)
chain: MKDTIALVVSTLNNPFFVSLKDGAQKEADKLGYNLVVLDSQNNPAKELANVQDLTVRGTKICLINPTDSDAVGNAVKMANQANIPVITLDRQATKGEVVSHIASDNVLGGKIAGDYIAKKAGEGAKVIELQGIAGTSAARERGEGFQQAVAAHKFNVLASQPADFDRIKGLNVMQNLLTAHPDVQAVFAQNDEMALGALRALQTAGKSDVMVVGFDGTPDGEKAVNDGKLAATIAQLPDQIGAKGVETADKVLKGEKVQAKYPVDLKLVVKQNGGSHHHHHH
B2: the ΔG in series [3] ([Ligand] 0 μM) is 1.0 kcal/mol; in series [3] ([Ligand] 1.5 μM (ribose)) it was 1.5 kcal/mol; in series [3] ([Ligand] 3 μM (ribose)), 1.8 kcal/mol; in series [3] ([Ligand] 6 μM (ribose)), 2.2 kcal/mol; in series [3] ([Ligand] 12 μM (ribose)), 2.6 kcal/mol; in series [3] ([Ligand] 24 μM (ribose)), 2.7 kcal/mol. In addition, the ΔΔG in series [3] ([Ligand] 0 μM) stood at 0 kcal/mol; in series [3] ([Ligand] 1.5 μM (ribose)) it was 0.5 kcal/mol; in series [3] ([Ligand] 3 μM (ribose)) it was 0.7 kcal/mol; in series [3] ([Ligand] 6 μM (ribose)) it was 1.2 kcal/mol; in series [3] ([Ligand] 12 μM (ribose)) it was 1.5 kcal/mol; in series [3] ([Ligand] 24 μM (ribose)) it was 1.6 kcal/mol. Moreover, the kex is 0.0099 s⁻¹ in series [3] ([Ligand] 0 μM); 0.0051 s⁻¹ in series [3] ([Ligand] 1.5 μM (ribose)); 0.0036 s⁻¹ in series [3] ([Ligand] 3 μM (ribose)); 0.00019 s⁻¹ in series [3] ([Ligand] 6 μM (ribose)); 0.00011 s⁻¹ in series [3] ([Ligand] 12 μM (ribose)); 0.00091 s⁻¹ in series [3] ([Ligand] 24 μM (ribose)). For the same molecule, the “apparent Tm” value in series [4] (Gibbs-Helmholtz fit of QCR ΔGU(T)) was 54±1 °C. The molecule also yielded a ΔHm in series [4] of 81 ± 2 kcal/mol. The “ΔG°U at 25° C.” value in series [4] was 3.2 ± 0.1 kcal/mol. Also, in series [4], the “apparent Tm below wild-type” value is about 8 °C.
